# Assay results as given in article doi:10.1101/2024.08.09.607165.
# Assays:
# [1] = biological target: TraT encoded by pKpQIL (TraT_(pKpQIL)), mature protein C36-L258 (K. pneumoniae (plasmid pKpQIL)); assay: cryo-EM structure
# [2] = biological target: TraT encoded by the F plasmid derivative pOX38 (TraTF), mature protein C21-L244 (E. coli (F plasmid, pOX38)); assay: cryo-EM structure
stoichiometry N [2],Substance,stoichiometry N [1]
–,"TraT encoded by pKpQIL (TraT_(pKpQIL)), mature protein C36-L258 (natural protein)",10
10,"TraT encoded by the F plasmid derivative pOX38 (TraTF), mature protein C21-L244 (natural protein)",–
